Experimental findings from patent US20240368264A1 (SHANGHAI NOVAMAB BIOPHARMACEUTICALS, published 2024) are described below.

One assay addresses human TSLP factor (human, UniProt Q969D9 29-159). The assay is described as follows: cell-based or functional assay.
The target in assay [1] is Human TSLP antigen protein (human, UniProt Q969D9 29-159). Kind of assay: blocking ELISA: human TSLP coated, antibody dilutions with 0.02 ug/mL biotinylated TSLPR, SA-HRP, OD450; blocked partner: biotinylated TSLPR protein. The method, then:
The above purified bivalent humanized antibodies were subjected to ELISA to detect blocking activity. […] After washing 5 times with PBST, 100 uL of TMB color-substrate solution was added and colour development at 37° C. for 10 min. The reaction was terminated by adding 2M H₂SO₄ 50 uL/well, and the absorption value was measured at 450 nm on an microplate reader.
For orientation: ELISA stands for enzyme-linked immunosorbent assay.

In a further assay the target is TSLP-Fc antigen. The assay is described as follows: BLI (Fortebio): antibody captured on Protein A probe, TSLP-Fc antigen 2-fold from 20 nM, global fit. How it is done:
The binding kinetics of 14 blocking TSLP nanobodies were measured by Bio-layer interferometry (BLI). For kinetic measurements, candidate antibodies were diluted to 5 ug/mL in PBST buffer, TSLP-Fc antigen diluted in PBST buffer in 2-fold gradients in six concentration gradients (2-fold gradient dilution from 20 nM), and set the instrument operating conditions: Temperature 30° C., Shake speed 1000 rpm. Antibodies were captured using a probe already encapsulated with Protein A, capture time 60 s; Binding of gradient diluted antigen, binding time 240 s; dissociation time 300 s; 10 mM glycine (pH 1.7) regenerated 2 times for 5 s each. Fortebio Analysis version 9.0 was used to perform the analysis, Global mode was fitted and the binding rate (Kon), dissociation rate (Kdis) and dissociation constant KD were calculated.
A general note: BLI is a label-free optical method that tracks binding on a fibre tip over time.

The target in a further assay is TSLP-Biotin protein (UniProt Q969D9 29-159, biotinylated (site not stated)). Kind of assay: flow cytometry blocking assay: antibody diluted 2-fold from 20 ug/mL with TSLP-Biotin on HEK293F/TSLPR transient cells, SA-PE, MFI; blocked partner: TSLPR on the cells. The method, then: The above 31 purified antibodies were again subjected to flow cytometry blocking activity assay. […] Centrifuged again and discard supernatant, add 200 uL PBS per well to resuspend cells, flow cytometry was performed to detect PE signal of sample.
(A flow cytometer gives signals particle by particle.)

B1: Bi-HuNb5-31 (VHH)
chain: EVQLLESGGGLVQPGGSLRLSCTASGFTSGGSDMGWYRQAPGNECDLVSYISSDGSTYYADSVKGRFTISQDNAKNTVYLQMNSLKPEDTAVYYCAATDYGLGPPPSSTGQCYGMDYWGKGTLVTVSSGGGGSGGGGSGGGGSGGGGSEVQLLESGGGLVQPGGSLRLSCTASGFTSGGSDMGWYRQAPGNECDLVSYISSDGSTYYADSVKGRFTISQDNAKNTVYLQMNSLKPEDTAVYYCAATDYGLGPPPSSTGQCYGMDYWGKGTLVTVSS
notes: also called humanized bivalent antibody; bivalent single domain antibody
As for B1, the “IC50 of inhibition of hTSLP-induced pSTAT5 (PE MFI, flow cytometry) in BaF3/TSLPR-IL7R cells” value (shortened to “IC50 of inhibition … in BaF3/TSLPR-IL7R cells”) with human TSLP factor was determined as 0.0797 ug/ml. Also, the IC50 in assay [1] came to 0.0759 µg/mL.

B2: Bi-HuNb7-54 (VHH)
chain: EVQLLESGGGLVQPGETLRLSCTASGFTFDDSDMGWYRQAPGNECELVSIISSDGMTYYADSVKGRFTISQDNAKNTVYLQMNSLKPEDTAVYYCAATKYSSDYDVAEDWRRGVCGDMDYWGKGTLVTVSSGGGGSGGGGSGGGGSGGGGSEVQLLESGGGLVQPGETLRLSCTASGFTFDDSDMGWYRQAPGNECELVSIISSDGMTYYADSVKGRFTISQDNAKNTVYLQMNSLKPEDTAVYYCAATKYSSDYDVAEDWRRGVCGDMDYWGKGTLVTVSS
notes: as for B1
For B2, the “IC50 of inhibition … in BaF3/TSLPR-IL7R cells” value with human TSLP factor was 0.0198 ug/ml. The half-maximal inhibitory concentration (IC50) in assay [1] was 0.141 µg/mL.

B3: Bi-HuNb10-63 (VHH)
chain: EVQLLESGGGLVQPGGSLRLSCTASGFTLDDSDMGWYRQAPGDECELVSTISSLGGTYYADSVKGRFTISHDNAKNTVYLQMNSLKPHDTAVYYCAPGTDRYSDCPNEYSVWGQGTLVTVSSGGGGSGGGGSGGGGSGGGGSEVQLLESGGGLVQPGGSLRLSCTASGFTLDDSDMGWYRQAPGDECELVSTISSLGGTYYADSVKGRFTISHDNAKNTVYLQMNSLKPHDTAVYYCAPGTDRYSDCPNEYSVWGQGTLVTVSS
notes: as for B1
As for B3, in the assay with human TSLP factor, the “IC50 of inhibition … in BaF3/TSLPR-IL7R cells” value stood at 0.472 ug/ml. Further, the IC50 in assay [1] came out at 0.0824 µg/mL.

B4: Nb7-54 (VHH)
VHH: QVQLQESGGGSVQAGETLRLSCTASGFTFDDSDMGWYRQAPGNECELVSIISSDGMTYYADSVKGRFTISQDNAKNTVYLQMNSLKPEDTAVYYCAATKYSSDYDVAEDWRRGVCGDMDYWGKGTQVTVSS
notes: Camel nanobody before humanization
In the assay with TSLP-Fc antigen, B4 registered a Kd of 0.226 nM, a koff of 0.000588 s⁻¹ and a kon of 2.61e+06 M⁻¹ s⁻¹. The “IC50 (read off the curve)” value in the assay with TSLP-Biotin protein was roughly 0.2 µg/mL.

B5: Nb5-31 (VHH)
VHH: QVQLQESGGGSVQAGGSLRLSCTASGFTSGGSDMGWYRQAPGNECDLVSYISSDGSTYYADSVKGRFTISQDNAKNTVYLQMNSLKPEDTAVYYCAATDYGLGPPPSSTGQCYGMDYWGKGTQVTVSS
notes: as for B4
In the assay with TSLP-Fc antigen, B5 returned a Kd of 0.115 nM, a koff of 0.000231 s⁻¹ and a kon of 2.02e+06 M⁻¹ s⁻¹.

B6: Nb10-63 (VHH)
VHH: QVQLQESGGGSVQAGGSLRLSCTASGFTLDDSDMGWYRQAPGDECELVSTISSLGGTYYADSVKGRFTISHDNAKNTVYLQMNSLKPHDTAVYYCAPGTDRYSDCPNEYSVWGQGTQVTVSS
notes: as for B4
In the assay with TSLP-Fc antigen, B6 came in with a Kd of 0.0945 nM, a koff of 0.000263 s⁻¹ and a kon of 2.78e+06 M⁻¹ s⁻¹.

What is called IC50 is the point on the concentration scale where inhibition reaches its midpoint. Lower therefore signals greater potency. Broadly, the Kd is the equilibrium constant for the complex coming apart. Usually koff stands for the rate constant with which the complex falls apart. Higher therefore signals a short-lived complex. The kon is a measure of how fast the partners come together.
